Source: the nanobody polyreactivity screen of Harvey et al. (2022)

Assay: yeast display, Sf9 membrane polyspecificity reagent, FACS + sequencing; frameworks hold sequencing errors
Outline: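 Nanobodies came from a synthetic yeast display library in Saccharomyces cerevisiae BJ5465, induced with galactose for 36–48 hours and stained for 1 hour at 4 °C with 10% biotinylated, detergent-solubilized Sf9 membrane reagent. Cells were enriched on streptavidin microbeads and then FACS-sorted, with low and high (top ~1%) gates set on anti-HA fluorescence for expression and streptavidin fluorescence for reagent binding. Each polyreactivity label reflects the gate a clone came from. Genes were amplified by colony PCR, sequenced by MiSeq 2 × 250 and filtered by CDR length.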

Sequence | polyreactivity (PSR sort gate)
QVQLVESGGGLVQAGGSLRLSCAASGRIFTIYAMGWSRQAPGKERELVATISRRGGSTYYADSVKGRFTISRDNAKNTVYLKMNSLKPEDSAVYYFAADSVITWWAYYYWGQGTQVTVSS | high polyreactivity
QVQLVESGGGLVQAGGSLRLSCAASGFTFPYYAMAWYRQAPGKEREVVAAISFSGGRTYYADSVMGRFTISRDNAKYTVYLQMNSLKPEDTAVYYCASYDYRNTGGGGYYYWGQGTQVTVSS | high polyreactivity
QVQLVESGGGLVQAGGSLRLICAASGYNCKYYAMGWYRAAPGKERELVASITSGGRTNYADSVKGRFTISRDNAKNTVYLQMNSLKPEDTAVYYCASRKPWKFVRTYTYDYWGQGTQLTVSS | high polyreactivity
QVQLVESGGGLVQAGGSLRLSCAPSGIFYKYAMGWYRQAPGKERELVAAISISGTSTYYADSVKGRFTISRDNAKNTVYLQMNSLKPEDTAVYYCAADEFYFAPPVAGENYWGQGTQVTVSS | low polyreactivity
QVQLVESGGGLVQAGGSLRVSCAASGNTFGGYAMGWYRQAPGKERELVAAISSSGGSTYYADSVKGRFTISRDNAKNTVYLQMNSLKPEDTAVYYCAAYGGVYGYWTMGYWGQGTQVTVSS | high polyreactivity
QVQLVESGGVFDQARGSLRLSCAASGSIFAIYAMGWYRQAPGKERELVAAISRSGGRTYYADSVKGRFTISRDNAKNTVYLQMNSLKPEDTAVYYCAAQGVSSGFRYRGGYWGQGTQVTVSS | high polyreactivity
QVQLVESGGGLVQAGGSLRLSCAASGFTFIDYTMGWYRQAPGKERELVARITDTGSTNYADSVKGRFTISRDNAKNTVYLQMNRLKPEDTAVYYCNKDDRNDRTIPGYDPEYDYWGQGTQVTVSS | low polyreactivity
QVQLVESGGGFVQAGGSLRLSCAASVIFGYYAMGWYSQAPGKERELVAAINWRGDSTYYADSVKGRFTISRDNAKNTVYLQMNSLKPEDTAVYYCAAQRRDIALLYDYWGQGTQVTLSS | low polyreactivity
QVQLVESGGGIVQAGGSLRLSCAASGSTFNYNAMGWYRQAPGKERELVAAITRSGDSTYADSVKGRFTISRDNAKNTFYLQMNSLKPEYTAVYYCAKRYTHYSFRRFDYWGQGSQVTVSS | low polyreactivity
QVQLVESGGGLVQAGGSLRLSCAASGRIFERNAMGWYRQAPGKERELVARITSGGGTYYADSVKGRFTISRDNAKNSVYLQMNSLKPEDTAVYYCAVQYLYRKYRRYDYWGQGTQVTVSS | high polyreactivity
QVQLVESCVGLVQAGGSLRLSCAASGRIFSRYAMGWYRQAPGKERELVADITWSGGRPYYADSVKGRFTISRDNAKNTVYLQMNSLKPEDTAVYDCAATGGFSWSRDYWGLGTQVTVSS | low polyreactivity
QVQLVESGGGIVQAGGSLRLSSAASGRIFDTNAMGWYRQAPGKERELVAAITGRGGGTYYADSVKGRFTISRDNAKNTVYLQMNSLKPEDTAVYYCNAFAPIYRHYSWGSGLDYWGQGTLVTVSS | high polyreactivity
QVQLVESGGGLVQAGGSLRLSCAASGRNFTSNAMGWYRQAPGKERELVAAITQSGGSTYYADSVKGRFTISRDNAKNTVYLQMNSLKPVDTAVYYCNAETTGRTEYNYWGQGTQVTVSS | low polyreactivity
QDQHVESGGGLVQAGGSLRLSCAASGIIFYAYVMGWYRQAPGKERELVAAITVSGGSTYYADSVKARFTISRDNAKNTVYLQMNSLKPEDTAVYYCAADWNFYQRTFDSWGQGTQVTVSS | low polyreactivity
QVQLVESRGRLVQAGGSLRLSCAASGFSFVINDMGRYRQAPGKERELVADITSGGDTYYADSVKGRFTISRDNAKNTVYLQKNSLKPEDTAVYYCAADIYRDLIYLLYGYWGQGTQVTVSS | low polyreactivity
QVQLVESGGGLVQAGGSLRLSCAASGRMGWYRQAPGKERELVAGITSSGRTYYADSVKGRFTISRDNAKNTVYLQMNSLKPEDTAVYYCATYGYWGQGTQVTVSS | high polyreactivity
QVQLVESGGGLVQAGGSLRLSCAASGLTFVRYTMGWYRQPPGKVRELVAAITRGDGTNYADSVKGRFTISRDNAKNTVYLHLNCMKPEDTAVYLCADQEHFLWNYYAFDYWGQGTQVTVSS | low polyreactivity
QVQLVESGGGLVQAGGSLRLRCAASGRIFTTYAMVWYRQAPGKERELVADITTGGGTYYADSVKGRFTISRDNAKNTVYLQMNSLKPEDTAVYYCNADYSADYYWYYYWGQGTQVTVSS | low polyreactivity
QDQLVDSGGGLVQAGGSLRLSCAASGSIFWTYAMGWYRQAPGKERELVATITYSDGNTYYADSVKGRFTISRDNAMNTVYLQMNSLKPEDTAVYYCNADGIYASISGYRYDYWGQGTQVTVSS | low polyreactivity
QVQLVESGGGLVQAGGSLRLSCAASGSNFVVYAMGWYRQAPGKERELVAAITGSGGRTYYADSVKGRFTISRDNAKNTVYLQMNSLKPEDTAVYYCATDSRGGIFDYWGQGTQVTVSS | low polyreactivity
QVQLVESGGGLVQAGGSLRLSCAASGFIFRSYDMGWYRQAPGKERELVARISSGGSTYYADSVKGRFTISRDNAKNTVYLQMNSLKPEDTAVYYCNSARPTAAYDYWGQGTQVTVSS | low polyreactivity
QVQLVESGGGLVQAGGSLRLSCAASGITFEGYAMGWYRQAPGKERELVAAITGSGSTTYYADSVKGRFTISRDNAKNTVYLQMNSLKPEDTAVYYCAADVSYKLYWGQGTQVTVSS | low polyreactivity

Sequence | polyreactivity (PSR sort gate)
QVQLVESGGGLVQAGGSLRLSCSASGITFLANAMAWYRPATGKERELVATITSRGASSYYADSVKVRFTISRDNAKNTVYLQMNSLKPEDTAVYYCAATVRRRYERYNDWAQGTQVTVSS | high polyreactivity
QVQLVESGGGLVQAGGSLRLSCAASGLTFVFYAMGWYRQAPGKERELVAAISSSGGSTNYADSVKGRFTISRDNAKNTVYLQMNSLKPEDTAVYYCNARGRSGGGRYDYWGQGTQVTVSS | high polyreactivity
QVQRVESGGGLVQAGGSLRLSCAASGRIFRYNAMGWYRQAPGKERELVAAISGTADRTYYADSVKGRFTNSRDNAKNTVYLQMNSLKPEDTAVYYCAVAYSYRYYYWGQGTQVTVSS | high polyreactivity
QVQLVESGGGLVQAGGSLRLSCAASGYTFRYYAMGWYRQAHGKERELVDDINSGDITNYADSVKGRFTISRDNAKYTVYLQMNSLKTEDTAVYYCARRTFSLYDYWGQGTQVTVSS | low polyreactivity
QVQLVESGGGLVQAGGSLRLSCASSGFTFHSYAMGWYRQAPGKERELVAAISTGGTRTYYADSVKGRFTISRDNAKNTVYLQMNSLKTEDTAVYYCAADLYRGVRIYSKYDSWGQGTQVTVSS | high polyreactivity
QVQLVESGGGLVQEGGSLRLSCAASGSIFSIYAMGWYRQAPGKERELVAAIDSGTSTTYADSVKGRFTISRDNAKNTVYLQMNSLKPEDTAVYYCAAALYSDVAAVATYGYYWGQGTQVTVSS | low polyreactivity
QVQLVESGGGLVQAGGSLRLSFAPSGRIVPNAMGWYRQAPGKDREMVAAISRSGGSTYYADSVKGRFTISRDNAKNTVYLQMNSLKPEDTAVYYCAKRSTSQSLQGEYWGQGTQVTVSS | high polyreactivity
QVQLVESGGGLVQAGVSLRLSCAASGFIFGLYVMGWYRQSPGKERELVAGITWTGGTTYYADSVKGRFTISRDNAKNTVYLQMNSLKPEDTAVYYCATRNYAVVPSVRREGYYWGQGTQVTVSS | low polyreactivity
QVQLVESGGGLVQAGGSLRLSCAASGRTFYYYVKGWDRQAPGKERELVAAITIRGGSTYYADSVKGRFTNSRDNAKNTVYLQMNSLKPEDTAVYYCNARGGSSTYGNYYWGQGTQVTVSS | low polyreactivity
QVQLVESGGGLVKAGGSLRLSCAASGRTFVYNAMGWYRQAPGKERELVADIDGGGDRTYYADSVKGRFTISRDNAKNKVFLQMNSLKPEDTAVYYCARDPGDTYYYSYPEGDYWGQGTQVTVSS | low polyreactivity
QDQLVESVGGLVQAGGSLRLSCAASGLTFEVYAMGWSRQAPGKDRELVAAISSGGRSTYYADSVKGRFTISRDNAKNTVYLQMNSRKPEDSAVYYCNAVAKLYYWRYDYWGQGTQVTVSS | low polyreactivity
QVQLVESGGGLVQAGGSLRLSCAASGRTFYFYAMGWYRQAPGKERELVASITSSGGNTYYADSVKGRFTISRDNAKNTVYLQMNSLKPEDTAVYYCAARWFPWLQWKRYDYWGQGTQVTVSS | low polyreactivity
QDQLVESGGGLVQAGGSLRLSCAASGRNFKYYGMRRYRQAPVKERDLVAAISRGSSTNYADSVKGRFTISRDNAKKTVYLQMYSLKPEDTAVYYCAVSLRRGGSGYAYDNWGQGTQVTVSA | high polyreactivity
QVQLVESGGGLVQAGGSLRLSCAASGRIFTRYAMGWYRQAPGKERELVAAIDRGGSTYYADSVKGRFTISRDNAKNTVYLQMNSLKPEDTAVYYCAARIKAWGLEFYYWGQGTQVTVSS | high polyreactivity
QVQLVESGGGLVQAGGSLRLSCAASGFTFYRNAMGWYRHAPGTERELVAAISWSGDSTYYADSVKGRFTISRDNAKNTVYLQMNSLKPEDTAVYYCAKERYFYYPWVTTYTSNYWGQGTQVTVSS | low polyreactivity
QVQLVESGGGLVQAGGSLRLSCAASRSIFRIYAMGWYRQAPGKERELVAGISKSGGSTYYADSVKGRFTISRDNAKNTVYLQMNSLKPEDTAVYYCNAGYNWSGLAVGRYGYDSWGQGTQVTVSS | low polyreactivity
QVQLVESGGGLVQAGGSLRLSCAASGLTFGGNAMGWYRQAPGKERELVAAISWNGGRTYYADSVKGRFTISRDNAKNTVDLQMNSLKPEDTAVYYCNTPVFSKSSRKYYYWGQGTQVTVSS | high polyreactivity
QVQLLESGGGLVQPGGSLRLSCAASGSIFGLNAMGLYRQEPGKETELVAAISGGSTNYADSVKGRFTISRDNAKNTVYFQMISLKPEDTAVYYCAAPRTKYLSNYGFWGEGTQVTVSS | high polyreactivity
QVQLVESGGGLVQAGGSLRLSSAASGSTFVNYVMGWYRQAPGKERELVAAISRRGTSTSYADSVKGRFTISRDNAKNTVYLQMNSLKPVDTAVYYCITLRQLGRPFYYWGQGTQVTVSS | high polyreactivity
QVQLVESGGGLVQAGGSLRLSCAASGRIFYSNVMGWYRQAPGKERELVAAISGRTGGTYYADSVKGRFTISRDNAKNTVYLQMNSLIPEDTAVYYCAARVIYYYGSGPYDYWGQGTQVTVSS | low polyreactivity
QVQLVESGGGLVQAGGSLRLSCAASGSTIYGYTMGWYRQAPGKEREMVAVITSGGSTYFADSVKGRFTISRDNAKNTVYLQMNSLKPEVTAVYYCAKRYGYTAYGRPWRIGRTYDYWGQGTQVTVSS | low polyreactivity
